Laboratory results from publication PMC4952014 (2015).

B1: Siglec-1 (recombinant protein used for SPR) (receptor)
chain: SWGVSSPQDVQGVKGSCLLIPCIFSFPADVEVPDGITAIWYYDYSGQRQVVSHSADPKLVEARFRGRTEFMGNPEHRVCNLLLKDLQPEDSGSYNFRFEISEVNRWSDVKGTLVTVTEEPRVPTIASPVELLEGTEVDFNCSTPYVCLQEQVRLQWQGQDPARSVTFNSQKFEPTGVGHLETLHMAMSWQDHGRILRCQLSVANHRAQSEIHLQVKYAPKGVKILLSPSGRNILPGELVTLTCQVNSSYPAVSSIKWLKDGVRLQTKTGVLHLPQAAWSDAGVYTCQAENGVGSLVSPPISLHIFMAEVQVSPAGPILENQTVTLVCNTPNEAPSDLRYSWYKNHVLLEDAHSHTLRLHLATRADTGFYFCEVQNVHGSERSGPVSVVVNHPPLTPVLTAFLETQAGLVGILHCSVVSEPLATLVLSHGGHILASTSGDSDHSPRFSGTSGPNSLRLEIRDLEETDSGEYKCSATNSLGNATSTLDFHANAARLLISPAAEVVEGQAVTLSCRSGLSPTPDARFSWYLNGALLHEGPGSSLLLPAASSTDAGSYHCRARDGHSASGPSSPAVLTVLYPPRQPTFTTRLDLDAAGAGAGRRGLLLCRVDSDPPARLQLLHKDRVVATSLPSGGGCSTCGGCSPRMKVTKAPNLLRVEIHNPLLEEEGLYLCEASNALGNASTSATFNGQATVLAIAPSHTLQEGTEANLTCNVSREAAGSPANFSWFRNGVLWAQGPLETVTLLPVARTDAALYACRILTEAGAQLSTPVLLSVLYPPDRPKLSALLDMGQGHMALFICTVDSRPLALLALFHGEHLLATSLGPQVPSHGRFQAKAEANSLKLEVRELGLGDSGSYRCEATNVLGSSNTSLFFQVRGAWVQVSPSPELQEGQAVVLSCQVHTGVPEGTSYRWYRDGQPLQESTSATLRFAAITLTQAGAYHCQAQAPGSATTSLAAPISLHVSYAPRHVTLTTLMDTGPGRLGLLLCRVDSDPPAQLRLLHGDRLVASTLQGVGGPEGSSPRLHVAVAPNTLRLEIHGAMLEDEGVYICEASNTLGQASASADFDAQAVNVQVWPGATVREGQLVNLTCLVWTTHPAQLTYTWYQDGQQRLDAHSIPLPNVTVRDATSYRCGVGPPGRAPRLSRPITLDVLYAPRNLRLTYLLESHGGQLALVLCTVDSRPPAQLALSHAGRLLASSTAASVPNTLRLELRGPQPRDEGFYSCSARSPLGQANTSLELRLEGVRVILAPEAAVPEGAPITVTCADPAAHAPTLYTWYHNGRWLQEGPAASLSFLVATRAHAGAYSCQAQDAQGTRSSRPAALQVLYAPQDAVLSSFRDSRARSMAVIQCTVDSEPPAELALSHDGKVLATSSGVHSLASGTGHVQVARNALRLQVQDVPAGDDTYVCTAQNLLGSISTIGRLQVEGARVVAEPGLDVPEGAALNLSCRLLGGPGPVGNSTFAWFWNDRRLHAEPVPTLAFTHVARAQAGMYHCLAELPTGAAASAPVMLRVLYPPKTPTMMVFVEPEGGLRGILDCRVDSEPLASLTLHLGSRLVASSQPQGAPAEPHIHVLASPNALRVDIEALRPSDQGEYICSASNVLGSASTSTYFGVRALHRLHQFQQLLWVLGLLVGLLLLLLGLGACYTWRRRRVCKQSMGENSVEMAFQKETTQLIDPDAATCETSTCAPPLG

Tests used:
[1] = biological target: T1, SF162 FD trimeric gp145 (HIV-1 SF162 | bacteriophage T4, UniProt P19551); experiment: SPR; immobilized Siglec-1
[2] = biological target: Soc-V1V2JR-FL (293F) (bacteriophage T4 | HIV-1 JR-FL); experiment: SPR; immobilized Siglec-1
[3] = biological target: T2, JR-FL FD trimeric gp145 (HIV-1 JR-FL | bacteriophage T4); experiment: SPR; immobilized Siglec-1
[4] = biological target: Soc-V1V2SF162 (CHO-S) (bacteriophage T4 | HIV-1 SF162); experiment: SPR; immobilized Siglec-1
[5] = biological target: T1, SF162 FD trimeric gp145; experiment: SPR; immobilized SF162 gp145
[6] = biological target: T2, JR-FL FD trimeric gp145; experiment: SPR; immobilized JR-FL gp145
[7] = biological target: B1; experiment: SPR; immobilized Siglec-1

Binder	Kd [1] [nM]	Kd [2] [nM]	Kd [3] [nM]	Kd [4] [nM]	Kd [5] [nM]	Kd [6] [nM]	Kd [7] [nM]
B1	0.441	4.34	0.28	1.96	8.26	2.9	
JR-FL monomeric gp120 (natural protein, N-glycosylated and sialylated (293F-expressed). Limits are not printed: start is the candidate's CHAIN start at 32, end is the residue before gp41 at 503. A vector-derived N-terminus from the CD5 leader, and a C-terminus affected by the cleavage-site change, are possible but not stated.) not shown							4.13
